Experimental data as given in paper PMC3439536.

target: CR2 SCR1-4-BCCP (Homo sapiens, UniProt P20023 21-273); experiment: SPR
Sequence (P20023 21-273): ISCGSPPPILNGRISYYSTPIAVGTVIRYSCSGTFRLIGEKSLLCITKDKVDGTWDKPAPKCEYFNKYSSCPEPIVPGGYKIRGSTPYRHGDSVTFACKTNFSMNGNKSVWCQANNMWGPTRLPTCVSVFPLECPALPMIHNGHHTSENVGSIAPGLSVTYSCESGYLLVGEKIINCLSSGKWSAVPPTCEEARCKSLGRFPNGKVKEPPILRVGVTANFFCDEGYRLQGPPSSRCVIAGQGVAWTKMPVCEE

Row | Binder | Kd [nM]
1 | 50% CpG rich DNA (dsDNA) DNA 1: TTCGATCGCACGCCCG DNA 2: CGGGCGTGCGATCGAA | 509
2 | 16bp scrambled DNA (dsDNA) DNA 1: ATGCATGCTGACTACG DNA 2: CGTAGTCAGCATGCAT | 266
3 | 25bp adenoviral E1a DNA (dsDNA) DNA 1: TTCTATGCCAAACCTTGTGCCGGAG DNA 2: CTCCGGCACAAGGTTTGGCATAGAA | 358
4 | 15bp adenoviral E1a DNA (dsDNA) DNA 1: TTCTATGCCAAACCT DNA 2: AGGTTTGGCATAGAA | 245
